Experimental data as given in the nanobody polyreactivity screen of Harvey et al. (2022).

Test: yeast display, Sf9 membrane polyspecificity reagent, FACS + sequencing; frameworks hold sequencing errors
Outline: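 After 36–48 hours of galactose induction, yeast (Saccharomyces cerevisiae BJ5465) displaying a synthetic nanobody library were stained at 4 °C for 1 hour with 10% biotinylated, detergent-solubilized Sf9 membrane reagent. Streptavidin microbeads enriched the stained cells before FACS sorting into low and high (top ~1%) gates on anti-HA and streptavidin fluorescence. Each clone's polyreactivity label reflects its gate of origin.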

Row | Sequence | polyreactivity (PSR sort gate)
1 | QVQLVESGGGLVQAGGSLRLSCAACGRTFRFYAMGWYRKAPGKERELVAAISKSGGSTYYADSVKGRFTISRDNEKNTVYLQMNSLKPEDTAVYYCAAQTYLYDYKYWGQGTQVTVSS | high polyreactivity
2 | QVQLVESGGGLVQAGGSLRLSCAACGSIFEAYAMGWYRKAPGKERELVAVINYSGGSTYYADSVKGRFTISRDNAKNTVYLQMNSLKPEDTAVYYCAADTVRPWYAYKAHDYWGLGTQVTVSS | low polyreactivity
3 | QVQLVESGGGLVQAGGSLRLSCAACGSIFPAYAMGWYRQAPGKERELVASITGSGGSTYYADSVKGRFTISRDNAKNTVYLQMNSLKPEDTAVYYCNARYYVYSATVDRYYHFYYWGQGTQVTVSS | high polyreactivity
4 | QVQLVESGGGLVQAGGSLRLSCAACGSIFPGYAMGWYREAPGKERELVAAITWNGGRTYSADSVKGRFTISRDNAKNTVYLQMNSLKPEDTAVYYCAVAGYAGLSVKYGYWGQGTQVTVSS | high polyreactivity
5 | QVQLVESGGGLVQAGGSLRLSCAACGSIFPRNAMGWYIQAPGKDRALVASLNSGGSTNYADSVKGRFTISRDNAKYTVYLHMNSLKPEDSAGYYCAAVRPWWRNKPQWPRYDYWGQGTQVTVSS | low polyreactivity
6 | QVQLVESGGGLVQAGGSLRLSCAACGSLFGYNAMGWYRQAPGKERELVAAISYSGGSTYYADSVKGRFTISRDNAKNTDFLQMNSLKPEETAVYYCNAYRRYKDEDYWGQGTQVTVSS | high polyreactivity
7 | QVQLVESGGGLVQAGGSLRLSCAACGSTFIPNGMGLYRQAPGKERELVAAITQDGGSTYYADSVKGRFTISRDNAKNTVYLQMNSLKPEDTAVYYCAASAGPYYEYGYWGQGTQVTVSS | low polyreactivity
8 | QVQLVESGGGLVQAGGSLRLSCAACGSTFWYYAMGWYRQAPGKEREFVAAISKSGDSTNYADSVKGRFTISRDNAKNTVYLQMNSLKPEDTAVYYCAATRSSGRFRYYYWGQGTQVTVSS | high polyreactivity
9 | QVQLVESGGGLVQAGGSLRLSCAAMGWYRQAPGKERELVATITWSGGSTYYADSVKGRFTISRDNAKNTVYLQMNSLKPEDTAVYYCNARATLLSPANTIRGYDYWGQGTQVTVSS | low polyreactivity
10 | QVQLVESGGGLVQAGGSLRLSCAAMGWYRQAPGKERELVATLTWSGGSTYYADSVKGRFTISRDNAKNPVYLQMNRLKPEDTAVYYCNARATLLSPANTIRGYDYWGQGTQVTVSS | low polyreactivity
11 | QVQLVESGGGLVQAGGSLRLSCAASAFIFRYYAIGGYRQAPGNERELVAAIARSGGSTYYADSVKGRFTISRDNAKNTVYLQMNSLKPEVTAVYYCNRGDVIGRQYDSAYGYWGQGTQVTVSS | high polyreactivity
12 | QVQLVESGGGLVQAGGSLRLSCAASAFIYSFNAMGWYSQAPGKERELVAAISRSGGSTRYADSVKGRFTISRDTAKNTVYLQMNSLKPEYTAVYYCATDASPVRKRYDYWGQGTQVTVSS | high polyreactivity
13 | QVQLVESGGGLVQAGGSLRLSCAASAFIYSSYAMGWYRQAPGKEMELVAAISYSGGSTYYADSVKGRFTISRDTAKNTVYLQMNRLKPEDTAVYYCAAELQIKIGFYTGEYEYYYWGQGTQVTVSS | high polyreactivity
14 | QVQLVESGGGLVQAGGSLRLSCAASAFTFDPYARGWYRHAPGKERELDAANSWSGGSTYYADSVKGRFTISRDHAKNSVYLQMNSLKPEDTAVYYCAAEWYNSAYYEYDYWGQGTQVTVSS | high polyreactivity
15 | QVQLVESGGGLVQAGGSLRLSCAASAFTFPGNAMGWYRHATGKERQLVAAISGTGGSTYYADSVKGRFTISRDNAKNTVYLQMNSLKPEDTAVYYCAARLGGRRRFGYWGQGTQVTVSS | high polyreactivity
16 | QVQLVESGGGLVQAGGSLRLSCAASAIIFYTYAMGWYRQAPGKERELVAAISSGGRTTYADSVKGRFTISRDNAKTTVYFQMNSLKPEDTAVYYCAARLFRSRHAASPFIRSIYGYWGQGTQVTVSS | high polyreactivity
17 | QVQLVESGGGLVQAGGSLRLSCAASARIFSPYAMGWYRQAPGKERELVAAITSASSTYYADSVKGRFTISRDNAKNTLYLQMNSLKPEDTAVYYCAASYWRYGSAFDYWGQGTQVTVSS | high polyreactivity
18 | QVQLVESGGGLVQAGGSLRLSCAASASIFADNTMGWYRQAPGKERELVAAITSSGRTYYADSVKGRFTISLDNAKNTVYLQLNSLKPEDTAVYYCAAVIYFHDYSPYYYWGQGTQVTVSS | high polyreactivity
19 | QVQLVESGGGLVQAGGSLRLSCAASASIFYRYAMGWYRQAPGKERELVAAITRSGARTYYADSVKGRFTISRDNAKNTVYLQMNSLKPEDNAVYYCAADDPGYYQVEYWGQGTQVTVSS | high polyreactivity
20 | QVQLVESGGGLVQAGGSLRLSCAASASIFYYYAMGWYRQEPGKERELVAALSDSGSTNYADSVKGRFTISRDNAKNTVYLQLNSLKPEDTAVYYCAAGFGSRRYRGVYYKMYYRGQGTQVTVSS | high polyreactivity
21 | QVQLVESGGGLVQAGGSLRLSCAASASILGSNAMGWYSQAPGKEREFVAAITWTGGSTYYADSVKGRFTISRDNAKNTVYLQMNSLKPEDSAVYYWAKDVKYVKMDDWGQGTQVTVSS | low polyreactivity

Row | Sequence | polyreactivity (PSR sort gate)
22 | QVQLVESGGGLVQAGGSLRLSCAASASNFGYNAMGRYRQAPGKERELVAVITDSGGSTYYADSVKGRFTISRDNAKNTVYLQMNSLKPEDTAVYYCAKVYGLVVRGHVILSGFDYWGQGTQVTVSS | low polyreactivity
23 | QVQLVESGGGLVQAGGSLRLSCAASASNSNGMTWYGIDRRLGRKELVAGIRSAGSTNYADSVKGRFTISRDNAKNTFYLQMNSLKPEDTAGYYCAKDYRWVWRKYGYWGQGTQVTVSS | low polyreactivity
24 | QVQLVESGGGLVQAGGSLRLSCAASASTFYGYAMGRFRQAPGKERELVAAISSGGSTYYADSVKGRFTISRDNAKNTVYVQMNSLKPEVTAVYYCAAYSYPKKYGYWGQGTQVTVSL | high polyreactivity
25 | QVQLVESGGGLVQAGGSLRLSCAASASTFYSYTMGWSRQAPGKERELVAAISRSGGRTYYADSVKGRFTISRDNAKNTVYLQMNSLKPEDTAVYYCAARWLGVDDYEYWGQGTQVTVSS | high polyreactivity
26 | QVQLVESGGGLVQAGGSLRLSCAASASTLRRYAMGLYRQAPGQERELVAAISGTGSRTYYADSVKGRFTISRDTAKITVYLQMNSLKPEDSAVYYCNASPYRLTENDYWGQGTQVTVSS | high polyreactivity
27 | QVQLVESGGGLVQAGGSLRLSCAASAYTFYAMGWYRQAPGKERELVAAITYRGARTYYADSVKRRFTISRDNEKNTVYLQMNSLKPEYTAVYYCNADYWGQGTQVTVSS | low polyreactivity
28 | QVQLVESGGGLVQAGGSLRLSCAASCRIFSYYVMGWYRQAPGKERELVAAISYRGGGTYYADSVKGRFTISRDNAKNNFYLQMNSLKPEDTAVYYCNADTYSNTYRAYDYWGQGTQVTVSS | low polyreactivity
29 | QVQLVESGGGLVQAGGSLRLSCAASFYVYAMGWYRQAPGKERELVAAITYSGGGTYYADSVKGRFTISRDNAKNTVYLQMNSLKPEDTAVYYCAADDYFYDYDYWGQGTQVTVSS | low polyreactivity
30 | QVQLVESGGGLVQAGGSLRLSCAASGAIFPSYVMGWYRPAPGKERELVAAITKSTGTTYYADSVKGRFTISRDNAKNTVYLQMNSLKPEDTAVYYCAASGSWSTNTAIYKFYYWGQGTQVTVSS | low polyreactivity
31 | QVQLVESGGGLVQAGGSLRLSCAASGAIFSWNAMGWYRQAPGKERELVATITWNGGRTYYADSVKGRFTISRDNAKKTVYLQMNSLKPEATAVYYCAARNTQPASYGYGYWGQGTQVTVSS | high polyreactivity
32 | QVQLVESGGGLVQAGGSLRLSCAASGAILYGNAMGWYRQAPGKERELVAAISYSGGRTYYADSVKGRFTISRDNAKYTVYLQMNSLKPEDTAVYYCASLHSGRVQNFDYWGQGTQVTVSS | high polyreactivity
33 | QVQLVESGGGLVQAGGSLRLSCAASGATFPVYAMGWYRQAPGKEWELVAAISRSGASTYYADSVKGRFTISRDNAKNTVYLQMNSLKPEDTAVYYCARGYQGRLKYEYWGQGTQVNVSS | low polyreactivity
34 | QVQLVESGGGLVQAGGSLRLSCAASGATFWYNAMRWYREAPGKERELVAAITWTGDGTYYADSVKGRFTISRDNAKNTVYLQMNSLKPEDTAVYYCAAAYFQWSTSIVGLDAWYDYWGQGSQVTVSS | low polyreactivity
35 | QVQLVESGGGLVQAGGSLRLSCAASGCIFWKDAMGWYRQAPGKERELVAAITSGGGTYYADSVKGLFTISRDNAKNTVYLQMNSLKPEDTAVYYCAARSLSVARRRPYYYWGQGTQVTVSS | high polyreactivity
36 | QVQLVESGGGLVQAGGSLRLSCAASGFDGYAMGWYRQAPGKERELVAASSWSGSRTYYADSVKGRFTISRDNAKNTVYLQMNSLKPEDTAVYYCNAVLRYSIYPSYSFSYVGYYYWGHGTQVTVSS | high polyreactivity
37 | QVQLVESGGGLVQAGGSLRLSCAASGFICGLNAMGLYRQAPGKERELVAAIRSASSTNYADSVKGRFTISRDNAKNTVYLQMNSLKPEDTAVYYCAAEYVTYQQGFWGYDYWGQGTQVTVSS | low polyreactivity
38 | QVQLVESGGGLVQAGGSLRLSCAASGFIFADNAMGWYRQAPGKERELVAGITSGGITNYADSVKGRFTISRDNAKNTVYLQMNSLKQVDTAVYYCAVYYRRWFSRYDYWGQGTQVTVSS | low polyreactivity
39 | QVQLVESGGGLVQAGGSLRLSCAASGFIFADNPMGWYRQAPGKERELVAGITSGGITNYADSVKGRFTISRDNAKNTVYLQMNSLKPEDTAVYYCAVYYRRWFSRYDYWGQGTQVTVSS | low polyreactivity
40 | QVQLVESGGGLVQAGGSLRLSCAASGFIFADYAMGWYRPAPGKERELVAAISSGGRTKYADSVKGRFTISRDNAKNTVYLQMNSLIPDDTAVYYCAKALRRVPRIQAYPVPQGDYWGHGTQVTVSS | high polyreactivity
41 | QVQLVESGGGLVQAGGSLRLSCAASGFIFADYAMGWYRQAPGKARELVAAINRGASTYYADSVKGRFSISRDNAKNTVYFQMNSLKPEDTAVYYCAAAGYSRGGRGGYWGHGTQVTVSS | high polyreactivity
